In data set [1] the test system is GloResponse NFAT-luc2 Jurkat cells with OVCAR3 and H1435 cells. Nature of the data set: NFAT-luc2 Jurkat luciferase assay with chemotherapeutic-treated cancer cells. It counts as cell-based, human. The settings on record: cells treated with cisplatin or carboplatin for 5 days vs untreated. Here is the method: Next, measurement was carried out based on a luciferase assay system using GloResponse NFAT-luc2 Jurkat cells (Promega, J1601) to see if T-cell-activation ability of CS4135 antibody via CD3 binding will change depending on the presence or absence of treatment by a chemotherapeutic agent.
The assay was performed as follows. First, as described above, OVCAR3 and H1435 cells treated with a chemotherapeutic agent for 5 days were detached from a culture flask and plated at 25 μL/well (2×10^4 cells) onto a white flat-bottom 96-well plate (Coster #3917). Next, 1×10^5 Jurkat/NFAT-RE reporter cell line together with the CS4135 antibody at a concentration selected from 0.003, 0.03, 0.3, 3, or 30 nM were added at 25 μL/well. After culturing overnight at 37° C., Bio-Glo reagent (Promega #G7941) was added at 75 μL/well followed by further incubation at room temperature for 10 minutes. Then, luminescence arose from activated Jurkat cells was measured using an EnSpire (PerkinElmer Japan) device. The luminescence magnification of each well was calculated by comparing the wells with the antibody to the wells without the antibody.

The subject of a further data set is UWB1.289. Nature of the data set: LDH release cytotoxicity on olaparib-treated UWB1.289. It counts as cell-based. The settings on record: UWB1.289, olaparib 3 μM three days vs DMSO, human PBMC. As to the method: (§1) The effect of the enhanced induction of CLDN6 expression in BRCA1-deficient ovarian cancer cell line UWB1.289, caused by the PARP inhibitor (olaparib), on the cytotoxic activity of anti-CLDN6/Dual-Fab tri-specific antibody CS4135 was assessed.
(§2) BRCA1-deficient ovarian cancer cell line UWB1.289 (ATCC) or BRAC1 wildtype ovarian cancer cell line OV-90 (ATCC) which express human CLDN6 were used as target cells.
(§3) Each target cell (3×10^5 cells) were seeded at 5 mL into a 25 cm^2-flask. Two flasks were prepared for each target cell. After culturing overnight, olaparib was added at a final concentration of 3 μM to one of the two flasks. DMSO was added to the other flask. After incubating the flasks for three days, the target cells were recovered, and the cytotoxic activity of the CS4135 antibody was evaluated by […] (LDH) release assay using human PBMC as the effector cell.

The target in the next data set is T1, recombinant cyno CD3eg (Macaca fascicularis, UniProt Q95LI5).
T1 sequence (Q95LI5 22-117 limits assumed): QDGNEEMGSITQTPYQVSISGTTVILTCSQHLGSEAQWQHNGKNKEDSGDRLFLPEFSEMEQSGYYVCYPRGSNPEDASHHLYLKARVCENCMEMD
T1 sequence (Q95LI7 23-115 partner limits assumed): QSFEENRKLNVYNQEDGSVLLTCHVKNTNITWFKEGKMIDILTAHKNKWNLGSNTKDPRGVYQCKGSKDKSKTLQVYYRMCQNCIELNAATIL
Nature of the data set: Biacore 8K SPR affinity to cyno CD3eg. The class given is binding, cynomolgus. The settings on record: 25 degree C, pH 7.4. As to the method:
(§4) The binding affinity of the anti-CLDN6/Dual-Fab tri-specific antibody against recombinant human and cyno CD3eg (gamma and epsilon subunits of CD3) at pH 7.4 was determined at 25 degree C. using Biacore 8K instrument (GE Healthcare). The binding affinity of the anti-CLDN6/Dual-Fab tri-specific antibody against recombinant human and cyno CD137 at pH 7.4 was determined at 37 degree C. using Biacore 8K instrument (GE Healthcare). Anti-human Fc (GE Healthcare) antibody was immobilized onto all flow cells of a CM4 sensor chip using amine coupling kit (GE Healthcare). Tested antibody and analytes were prepared in ACES pH 7.4 containing 20 mM ACES, 150 mM NaCl, 0.05% Tween 20, 0.005% NaN3. Anti-CLDN6/Dual-Fab tri-specific antibody was captured onto the sensor surface by anti-human Fc. Antibody capture levels were aimed at 300 resonance unit (RU). Recombinant CD3eg and CD137 were injected at both 500 and 2000 nM, followed by dissociation. Sensor surface was regenerated each cycle with 3M MgCl2. […] Binding affinities were determined by processing and fitting the data to 1:1 binding model using Biacore Insight Evaluation software (GE Healthcare).

The next data set concerns cyno CLDN6 VLP. The data set is described as follows: Biacore T200 SPR affinity to cyno CLDN6 VLP. The class given is binding, cynomolgus. As to conditions: cyno CLDN6, 25 degree C, pH 7.4. Here is the method:
The binding affinity of the anti-CLDN6/Dual-Fab tri-specific antibody against human and cynomolgus (cyno) CLDN6 VLP (virus-like particle) at pH 7.4 was determined at 25 degree C. using Biacore T200 instrument (GE Healthcare). Anti-human CD81 (BD Pharmingen) antibody was immobilized onto all flow cells of a C1 sensor chip using amine coupling kit (GE Healthcare). Human and cyno CLDN6 VLP were captured onto the sensor surface by the anti-human CD81 antibody. Each VLP was 5-fold dilution by buffer (20 mM NaPhosphate, 150 mM NaCl, 0.1 mg/mL BSA, 0.005% NaN3, pH 7.4). Tested antibody was prepared in buffer (20 mM NaPhosphate, 150 mM NaCl, 0.1 mg/mL BSA, 0.005% NaN3, pH 7.4). Anti-CLDN6/Dual-Fab tri-specific antibody was injected at 50 and 200 nM, followed by dissociation. Sensor surface was regenerated each cycle with 0.1% SDS and 100 mM H3PO4. […] Binding affinities were determined by processing and fitting the data to 1:1 binding model using Biacore T200 Evaluation software, version 2.0 (GE Healthcare).

A further data set deals with recombinant human CD3eg (Homo sapiens, UniProt P07766+P09693). Nature of the data set: Biacore 8K SPR affinity to human CD3eg. The class given is binding. As to conditions: 25 degree C, pH 7.4. As to the method:
as §4

A further data set concerns OV-90. The data set is described as follows: LDH release cytotoxicity on olaparib-treated OV-90. It counts as cell-based. The settings on record: OV-90, olaparib 3 μM three days vs DMSO, human PBMC. As to the method: as §1, §2, §3
For a further data set, the system named is SNG-M. Nature of the data set: SNG-M xenograft in huNOG mice, combination with carboplatin. It counts as in vivo. As to conditions: 30 days after transplantation; CS4135 0.5 mg/kg iv day 13, carboplatin 40 mg/kg ip days 13, 16, 20. Here is the method: In this test, NOG (huNOG) mice (described in the aforementioned Example 13) transplanted with human uterus cancer cell line SNG-M and human CD34-positive cells were used. The SNG-M cell line was transplanted subcutaneously to the right flank of the mice, and the mice were divided into groups 13 days after transplantation. Individuals whose tumor volume reached 130 to 244 mm^3 were divided into groups. Vehicle 1 and CS4135 were administered into the mouse tail vein 13 days after transplantation. PBS containing 0.05% Tween-20 was used as Vehicle 1. Vehicle 2 and carboplatin (Bristol Myers Squibb Company) were administered intraperitoneally to the mice 13, 16, and 20 days after transplantation. Physiological saline was used as Vehicle 2.
Tumor volume was measured 13, 16, 20, 23, 26, and 30 days after transplantation, and the average tumor volume was indicated for each group.
The tumor volume was calculated by the following equation: […]
Tumor Growth Inhibition (TGI) was calculated by the following equation: […]

recombinant human CD3eg, sequence (P07766+P09693 fused): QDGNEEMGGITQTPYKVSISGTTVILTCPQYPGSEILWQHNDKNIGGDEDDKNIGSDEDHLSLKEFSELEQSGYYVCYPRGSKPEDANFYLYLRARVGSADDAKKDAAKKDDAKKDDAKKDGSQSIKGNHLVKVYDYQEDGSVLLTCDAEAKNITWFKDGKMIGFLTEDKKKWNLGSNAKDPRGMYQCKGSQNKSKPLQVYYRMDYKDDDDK

B1: PPU4135: anti-CLDN6/Dual-Fab tri-specific antibody, chains SEQ ID NOs 42, 51, 56, 69; CS4135 same antibody (protein)
chain 1: QVQLVESGGGVVQPGGSLRLSCAASGFTFSSYTMSWVRQAPGQGLEWMGTISSGGGRTYYPDSVKGRFTISRDNSKNTLYLQMNSLRDEDTAVYYCARGDYRYDGFAYWGEGTLVTVSSASTKGPSVFPLAPSSKSTSGGTAALGCLVEDYFPEPVTVSWNSGALTSGVHTFPAVLESSGLYSLSSVVTVPSSSLGTQTYICNVNHKPSNTKVDKRVEPKSCDKTHTCPPCPAPEAAGGPSVFLFPPKPKDTLMISRTPEVTCVVVDVSHEDPEVKFNWYVDGVEVHNAKTKPREEQYASTYRVVSVLTVLHQDWLNGKEYKCKVSNKALPAPIEKTISKAKGQPREPQVYTLPPSREEMTKNQVSLTCLVKGFYPSDIAVEWESNGQPENNYKTTPPVLDSDGSFFLYSKLTVDKSRWQQGNVFSCSVMHEALHNHYTQESLSLSP
chain 2: DIQMTQSPSSLSASVGDRVTITCRASYNIDSYLAWYQQKPGKAPELLIYYSTLLVDGVPDRFSGSRSGTDFTLTISSLQPEDFATYYCQHYYSIPYTFGQGTKVEIERTVAAPSVFIFPPSDEQLKSGTAKVVCLLNNFYPREAKVQWKVDNALQSGNSKESVTEQDSKDSTYSLSSTLTLSKADYEKHKVYACEVTHQGLSSPVTKSFNRGEC
chain 3: QVQLVESGGGLVQPGRSLRLSCAASGFKFSNVWFHWVRQAPGKGLEWVAQIKDYYNAYAAYYAPSVKGRFTISRDDSKNSIYLQMNSLKTEDTAVYYCHYVHYASASTLLPAEGVDAWGQGTTVTVSSASTKGPSVFPLAPSSKSTSGGTAALGCLVKDYFPEPVTVSWNSGALTSGVHTFPAVLKSSGLYSLSSVVTVPSSSLGTQTYICNVNHKPSNTKVDKRVEPKSCDKTHTCPPCPAPEAAGGPSVFLFPPKPKDTLMISRTPEVTCVVVDVSHEDPEVKFNWYVDGVEVHNAKTKPREEQYASTYRVVSVLTVLHQDWLNGKEYKCKVSNKALPAPIEKTISKAKGQPREPQVYTLPPSRKEMTKNQVSLTCLVKGFYPSDIAVEWESNGQPENNYKTTPPVLDSDGSFFLYSKLTVDKSRWQQGNVFSCSVMHEALHNHYTQKSLSLSP
chain 4: DIVMTQSPLSLPVTPGEPASISCQPSQEVVHMNRNTYLHWYQQKPGQAPRLLIYKVSNRFPGVPDRFSGSGSGTDFTLKISRVEAEDVGVYYCAQGTSHPFTFGQGTKLEIKRTVAAPSVFIFPPSDEQLKSGTAEVVCLLNNFYPREAKVQWKVDNALQSGNSEESVTEQDSKDSTYSLSSTLTLSKADYEKHKVYACEVTHQGLSSPVTKSFNRGEC
On to B1, for which, in data set [1], the “T cell activation ability via CD3” value is on record as “enhanced”. Also, the “cytotoxic activity after addition of olaparib” value in the data set on UWB1.289 is “enhancement of cytotoxicity”; in the data set with OV-90, “no effect on cytotoxic activity”. Besides, the ka with recombinant cyno CD3eg stood at 101000 M⁻¹ s⁻¹; with cyno CLDN6 VLP, 218000 M⁻¹ s⁻¹; in the data set with recombinant human CD3eg it was 78000 M⁻¹ s⁻¹. Moreover, the results for the kd with recombinant cyno CD3eg, at cyno CLDN6 VLP and in the data set with recombinant human CD3eg were 0.0332 s⁻¹, 0.000821 s⁻¹ and 0.0266 s⁻¹, respectively. In addition, the “Tumor growth inhibition: TGI” value in the data set with SNG-M stood at 35%.

(Values after patent US20240425589A1, “CYTOTOXICITY-INDUCING THERAPEUTIC AGENT FOR USE IN TREATMENT OF CANCER” (CHUGAI SEIYAKU KABUSHIKI KAISHA, priority 2021, published 2024).)
